Paper PMC2659877

What was measured:
[1] = biological target: β-spectrin consisting of residues 1898–2083 (Spβ) (UniProt P11277); assay: ITC
[2] = biological target: β-spectrin (Homo sapiens) (UniProt P11277); assay: ITC; conditions: cited from earlier work
[3] = biological target: β-spectrin (Homo sapiens) (UniProt P11277); assay: ITC; conditions: cited from earlier work; remark: listed apart in the source
[4] = biological target: β-spectrin (Homo sapiens) (UniProt P11277); assay: ITC; conditions: cited from earlier work; remark: listed apart in the source
[5] = biological target: β-spectrin (Homo sapiens) (UniProt P11277); assay: ITC; conditions: cited from earlier work; remark: listed apart in the source
[6] = biological target: spin labeled SpαΔ 49R1 (UniProt P02549); assay: spin label EPR titration

Substance	Kd [1] [µM]	further results
cysteine-less fragment of the first 368 residues of α-spectrin (from UniProt P02549 1-368) (domain or fragment)	0.9	–
spin labeled SpαΔ 20R1 (from UniProt P02549 1-368) (domain or fragment)	1.5	–
spin labeled SpαΔ 45R1 (from UniProt P02549 1-368) (domain or fragment)	2.9	–
spin labeled SpαΔ 46R1 (from UniProt P02549 1-368) (domain or fragment)	5.9	–
spin labeled SpαΔ 48R1 (from UniProt P02549 1-368) (domain or fragment)	3.1	–
spin labeled SpαΔ 49R1 (from UniProt P02549 1-368) (domain or fragment)	> 30	–
spin labeled SpαΔ 53R1 (from UniProt P02549 1-368) (domain or fragment)	3.3	–
α-spectrin (from UniProt P02549)	–	Kd [2]: 0.4 µM; Kd [3]: 14 µM; Kd [4]: 0.5 µM; Kd [5]: > 200 µM
β-spectrin consisting of residues 1898–2083 (Spβ) (from UniProt P11277 1898-2083) (domain or fragment)	–	Kd [6]: 98 µM
